According to PMC7126683 (Structure (London, England : 1993), 2005):

Target: the molecule itself
Test: SEC

B1: IBV-N218-329, recombinant C-terminal domain (residues 218-329) of the IBV nucleocapsid protein (domain or fragment, UniProt P69596 218-329, looked up)
chain: KADEMAHRRYCKRTIPPNYRVDQVFGPRTKGKEGNFGDDKMNEEGIKDGRVTAMLNLVPSSHACLFGSRVTPKLQLDGLHLRFEFTTVVPCDDPQFDNYVKICDQCVDGVGT
stoichiometry N: 2
